In one assay the target is T1, AF9 YEATS domain (1-138) (human, UniProt P42568 1-138).
T1 sequence (looked up): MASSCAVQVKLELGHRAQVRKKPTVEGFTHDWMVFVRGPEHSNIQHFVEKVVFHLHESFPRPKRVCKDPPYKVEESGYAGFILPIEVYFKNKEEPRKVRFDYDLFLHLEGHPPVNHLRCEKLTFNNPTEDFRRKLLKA
The experiment in a line: ITC.

Another assay addresses T2, AF9 YEATS domain F59Y (human, UniProt P42568 1-138, F59Y).
T2 sequence (looked up): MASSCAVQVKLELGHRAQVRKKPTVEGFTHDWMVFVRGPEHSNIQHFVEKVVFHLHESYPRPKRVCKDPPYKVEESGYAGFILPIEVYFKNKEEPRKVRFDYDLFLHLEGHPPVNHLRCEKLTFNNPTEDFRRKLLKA
The experiment in a line: ITC. On the technique in general: In ITC the heat of successive injections is recorded.

Assay [1] deals with T3, AF9-F28R YEATS domain (1-138) (human, UniProt P42568 1-138, F28R).
T3 sequence (looked up): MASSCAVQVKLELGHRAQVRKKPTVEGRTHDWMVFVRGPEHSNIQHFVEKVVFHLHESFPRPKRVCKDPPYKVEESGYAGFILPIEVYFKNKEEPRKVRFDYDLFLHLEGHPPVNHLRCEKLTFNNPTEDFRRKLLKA
The assay is described as follows: crystal structure.

H3K9ac peptide (ITC) came in with a Kd with AF9 YEATS domain (1-138) of 4.6 µM.

In the case of H3K18la peptide, in the assay with AF9 YEATS domain (1-138), the Kd came out at 172 µM.

Regarding ARTKQTARKS (lactyl-lysine (L-lactylation) at K9) [H3K9la peptide (ITC)], the “fold reduction of affinity against WT AF9 YEATS” value with AF9 YEATS domain F59Y was 2 fold. The molecule further yielded a Kd with AF9 YEATS domain (1-138) of 74.4 µM.

For the molecule ARTKQTARKS (peptide, UniProt P68431 2-11, looked up, lactyl-lysine (L-lactylation) at K9) [H3_(1-10)K9la peptide], the binding result in assay [1] was “binds”.

The term Kd denotes the constant that tells how readily two partners part at equilibrium. High values mean a looser complex, low ones a tighter complex.

The record behind these values is publication doi:10.1101/2025.06.18.660498 (bioRxiv, 2025).
